Results as given in the Human Domainome abundance scans (Beltran et al. 2025).

B1: Tesmin, residues 368 to 403; numbered along this chain, Q9Y4I5 (parent)
chain: KGCNCRRSGCLKNYCECYEAQIMCSSICKCIGCKNY

Variants of: B1
Experiment: abundance fitness (aPCA) (normalised: wild type 0, dead -1); higher = more abundant; growth selection in yeast, the domain comes from the species named
Conditions: Homo sapiens

Abundance fitness: each site, then its substitutions
L11: E 0.05; G -0.064; M 0.038; R -0.344; Y -0.656; P -0.116; W -0.388; K -0.025; D -0.428; N -0.243; C -0.567; S -0.134; A 0.075; I -0.369; Q 0.087; H 0.297; T -0.079
N13: I -0.398; C -0.558; K -0.075; F -0.613; R -0.218; V -0.619; M -0.556; P -0.258; S -0.181; E -0.061; W -0.755; L -0.266; H -0.871; T -0.297; Y -0.51; Q -0.061; G -0.045; D -0.092
R7: W -0.255; E 0.398; T 0.047; I -0.336; L -0.021; K 0.039; P -0.103; Q 0.282; M 0.214; G 0.268; Y 0.035; A 0.248; C -0.401
C17: R -0.444; L -0.288; K -0.337; E -0.465; Q -0.205; T -0.689; P -0.312; A -0.36; M -0.575; Y -0.72; V -0.415
C5: S -0.342; H 0.066; N -0.478; I -0.936; L -0.455; Q -0.346; A -0.414; M -0.286; P -0.296; V -1.24; D -0.794; W -0.523; G -0.65; T -0.431; E -0.176
N4: H -0.199; T -0.186; G -0.103; S -0.103; V -1.13; M -0.011; K -0.314; R -0.16; L -0.207; D 0.22; Y -0.226; E -0.056; A -0.162; I -0.31; P -0.033; C -0.183
C3: G -0.236; Y -0.056; T -0.322; Q -0.462; A -0.33; K -0.115; F -0.567; W -0.624; P -0.577; S -0.702; H -0.363; I -0.51; L -0.677; M -0.194; D -0.262
G9: T -0.22; W -1.51; L -0.629; M -0.269; N -0.248; A -0.339; D 0.111; P -0.213; V -0.334; Q -0.342; E 0.006; S -0.795
K12: W -0.643; E 0.031; C -0.622; A -0.05; V -0.014; M -0.323; I -0.405; P -0.077; H -0.217; N -0.46; Y -0.831; G -0.079; Q -0.076; L -0.316; R -0.359; F -0.01; S -0.181; T -0.201
A20: W -0.295; L -0.199; T -0.196; C -0.442; Y -0.367; Q -0.095; P -0.292; G 0.065; I -0.696; K -0.337; S -0.049; V -0.202; E -0.082; M -0.317; R -0.038
Y14: Q 0.007; P 0.145; K -0.02; D 0.171; C 0.14; N 0.267; E 0.013; T -0.222; R 0.01; I -0.09; M 0.153; A -0.253; S 0.047; V -0.082; G 0.096; W -0.01
M23: A -0.18
S8: R -0.169; V -0.187; D -0.066; G 0.034; M -0.343; C -0.581; N -0.384; L -0.106; Q -0.063; I 0.19; W -0.527; E -0.08; A -0.144; K -0.107; F -0.399; H -0.461; Y -0.514
G2: W -0.674; T -0.439; M -0.189; C -0.448; R -0.447; A -0.133; V -0.209; E 0.017; L -0.465; K -0.565; P 0.07; S -0.194; Q -0.17
R6: W 0.012; E 0.214; G 0.151; C 0.036; S 0.303; F -0.169; L 0.204; N -0.361; V 0.12; K 0.146; A 0.33; T 0.239; Q 0.338; D 0.156
K1: D -0.995; E -0.136; C -0.775; V -0.825; S -0.401; G -0.573; L -0.211
C15: F -0.742; P -0.259; W -0.993; H -0.425; L -0.713; E -0.076; R -0.378; S -0.596; I -0.809; A -0.394; M -0.689; K -0.295; G -0.305; T -0.382; Q -0.282; V -0.65; D -0.04; Y -0.658
Y18: E 0.058; R -0.153; M 0.098; W -0.047; T -0.082; I -0.318; L -0.353; Q 0.107; V -0.27; P -0.066; A -0.03; S -0.059; F -0.089; C -0.106; G 0.034; H -0.016; D -0.088; N 0.083
E16: A -0.256; Y -0.577; V -0.329; L -0.441; N -0.763; F -0.453; D -0.522; G -0.086; W -0.466; K -0.502; T -0.39; C -0.677; P -0.327; Q -0.034; S -0.57; M -0.218; R -0.341; H -0.418
I22: P -0.043; V 0.048; T 0.109; W -0.365; S -0.066; L -0.073; F -0.088; K -0.093; Q 0.329; C -0.55; E 0.004; R 0.021; G 0.268; A 0.004; N 0.551; M -0.423
E19: F -0.31; G -0.043; Q -0.131; V -0.201; M -0.18; D -0.243; A -0.107; R -0.188; N -0.351; K -0.1; P -0.284; C -0.132; T -0.308; L -0.281; S -0.226
C10: P -0.633; S -0.213; N -0.405; Q -0.208; T -0.245; V -0.322; W -0.418; D -0.105; K -0.323; I -1.37; M -0.501; L -0.414; R -0.539; E 0.004; Y -0.439; A -0.141
Q21: G -0.004; V -0.472; L -0.26; W -0.508; N -0.124; A -0.127; D -0.566; M -0.48; C -0.235; K -0.065; P -0.073; R 0.061; T -0.08; E 0.155; H -0.271
